Measurements taken from US20240384250A1, “FIBROBLAST GROWTH FACTOR 23 MODULATING COMPOUNDS” (THE UAB RESEARCH FOUNDATION, priority 2021, published 2024).
Values belong to the molecule of their own block, whether it stands above or below them.

Tests used:
FGFR1c = target: T1, FGFR1c (Homo sapiens, UniProt P11362); assay: Plate-based binding assay, FGFR1c coated, FLAG-sKL detected with anti-FLAG HRP; conditions: purified protein
T1 construct: Fc-coupled FGFR ectodomains were immobilized on protein A/G beads; purchased R&D Systems 658FR050
T1 sequence (P11362 22-376 limits assumed): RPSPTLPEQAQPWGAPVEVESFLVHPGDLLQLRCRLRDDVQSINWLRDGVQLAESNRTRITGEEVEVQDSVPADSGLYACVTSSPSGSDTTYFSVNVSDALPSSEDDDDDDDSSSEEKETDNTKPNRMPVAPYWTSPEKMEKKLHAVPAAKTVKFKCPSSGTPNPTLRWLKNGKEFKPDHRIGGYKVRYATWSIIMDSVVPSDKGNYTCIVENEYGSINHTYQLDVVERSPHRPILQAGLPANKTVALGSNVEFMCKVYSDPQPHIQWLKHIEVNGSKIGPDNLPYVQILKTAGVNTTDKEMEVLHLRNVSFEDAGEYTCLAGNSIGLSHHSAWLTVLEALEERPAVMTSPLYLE
Method: (§1) Proteins were coated on 96-well plates (MaxiSorp; 439454, Thermo Fisher Scientific), and proteins were added to wells in 100 μl of enzyme-linked immunosorbent assay (ELISA) coating buffer (E107, Bethyl Laboratories) with a lid placed overtop and incubated at 4° C. overnight. Plates were washed 5× with 350 μl of assay buffer (50 mM Tris [pH 7.4], 200 mM NaCl, 0.01% Tween 20) on a 50 TS microplate washer (BioTek). Plates were blocked for 1 hour in 200 μl of assay buffer with 0.5% BSA. Plates were washed as before, and proteins were incubated on plates in 100 μl of assay buffer with 0.5% BSA. Proteins or heparin was incubated in orders described in the respective figure legends. Assays using FLAG-tag-based detection were incubated with anti-FLAG coupled to HRP at 1:20,000, and assays using Fc detection were incubated with anti-human Fc coupled to HRP at 1:10,000. Plates were washed as above, and 100 μl of 3,3′,5,5′-tetramethylbenzidine (TMB) substrate (E102, Bethyl Laboratories) was added for 15 to 20 minutes until positive wells developed a dark blue color. Reactions were stopped with ELISA stop solution (E115, Bethyl Laboratories) and analyzed using the Synergy HI plate reader (BioTek) at 450 nm wavelength. […] As a control to remove background absorbance values, wells were coated with an equal amount of BSA to match the amount of protein coated in experimental wells and treated the same as experimental wells. To study the effects of sKL on the binding between paracrine FGFs and FGFRs, plates were run as above except coated with paracrine FGFs. Fc-FGFR1 was preincubated with sKL or vehicle for 60 minutes, and then the combination was added to wells and the assay was run as before.

FGF23 = target: T2, FGF23 (Homo sapiens, UniProt Q9GZV9); assay: Plate-based binding assay, FGF23 coated, FLAG-sKL detected with anti-FLAG HRP; conditions: 100 ng FGF23 coated
T2 construct: purchased R&D Systems 2604FG025/CF (human) or 2629FG025/CF (mouse)
T2 sequence (Q9GZV9 25-251): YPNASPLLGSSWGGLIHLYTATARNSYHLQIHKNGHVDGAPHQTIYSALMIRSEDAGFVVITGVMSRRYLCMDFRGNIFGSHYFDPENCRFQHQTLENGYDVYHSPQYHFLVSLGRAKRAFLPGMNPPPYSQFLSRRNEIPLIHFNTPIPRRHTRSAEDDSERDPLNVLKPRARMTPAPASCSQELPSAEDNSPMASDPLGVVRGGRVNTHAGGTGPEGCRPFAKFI
Method: as §1

[1] = test system: phosphorylated ERK in HEK293T cells; assay: ERK phosphorylation in serum-starved HEK293 cells (Western blotting); assay type: cell-based, human; conditions: FGF 1.1 nM for 10 minutes, absence of sKL
Method: The sample (20 μl) was loaded onto Mini-PROTEAN TGX Precast Gel 4-20% for experiments with <9 samples (4568094, Bio-Rad) or Criterion TGX Precast Gel 4-20% (5678094, Bio-Rad) for experiments with >9 samples. Gels were run in 1× Tris/Glycine/SDS buffer (1610732, Bio-Rad) at 150 V and stopped when the sample dye reached the end of the gel. Gels were removed and electrotransferred via a semi-dry cassette (1703940, Bio-Rad) in I× Tris/Glycine buffer (1610734, Bio-Rad) with 20% methanol. Gels were transferred onto polyvinylidene diflouride membranes (IPVH00010, Millipore) at 20 V for 1 hour. Membranes were then blocked in 5% dried milk with 0.5% Tween 20 diluted in Tris-buffered saline (TBST; pH 7.5) for 1 hour and probed with antibodies against specific antigens at 1:1000 in TBST with 5% dried milk. Blots were washed 3× for 5 minutes in TBST and probed with HRP-coupled secondary antibodies against specific species at 1:10,000 in TBST with 5% dried milk. Membranes were imaged on the SRX-101A X-ray film developer (Konica Minolta).
To determine the cellular activity of paracrine FGFs, the activation/phosphorylation of ERK in HEK293 cells after treatment was studied. HEK293 cells were seeded in 6-well plates in DMEM (26140079, Gibco) supplemented with I× Pen/Strep (15140122, Gibco) and 10% FBS (26140079, Gibco) and grown for 48 hours. Upon reaching 80% confluence, cells were serum starved overnight in DMEM and 1× Pen/Strep without FBS. The medium was changed, and cells were treated with sKL at 2 μg/ml or vehicle (sKL elution buffer: 25 mM Tris ph 8.0, 500 mM NaCl) for 15 minutes. Cells were then treated with various FGFs at 1.1 nM for 10 minutes. Cells were lysed in 200 μl of RIPA with the addition of a protease inhibitor (11836153001, Roche) and phosphatase inhibitors (P5726 and P0044, Sigma-Aldrich) for 30 minutes. The mixture was then centrifuged at 20,000 g for 60 minutes to remove all cell debris. One hundred microliters of 1× Laemmli sample buffer (1610737, Bio-Rad) with 1.42 M 2-mercaptoethanol was added, and samples were boiled for 5 minutes. Twenty microliters of samples was loaded onto 12% SDS-PAGE gels and analyzed using Western blotting for total and phosphorylated ERK.

- binding affinity for FGFR1c compared with wildtype sKL (FGFR1c): does not affect
- FGF23 binding of sKL variants in HEK293 cell media compared with wildtype sKL (FGF23): increased FGF23 binding
B1: sKL-N694Q: sKL variant with glycosylation site Asn694 substituted by Gln (protein)
chain: EPGDGAQTWARFSRPPAPEAAGLFQGTFPDGFLWAVGSAAYQTEGGWQQHGKGASIWDTFTHHPLAPPGDSRNASLPLGAPSPLQPATGDVASDSYNNVFRDTEALRELGVTHYRFSISWARVLPNGSAGVPNREGLRYYRRLLERLRELGVQPVVTLYHWDLPQRLQDAYGGWANRALADHFRDYAELCFRHFGGQVKYWITIDNPYVVAWHGYATGRLAPGIRGSPRLGYLVAHNLLLAHAKVWHLYNTSFRPTQGGQVSIALSSHWINPRRMTDHSIKECQKSLDFVLGWFAKPVFIDGDYPESMKNNLSSILPDFTESEKKFIKGTADFFALCFGPTLSFQLLDPHMKFRQLESPNLRQLLSWIDLEFNHPQIFIVENGWFVSGTTKRDDAKYMYYLKKFIMETLKAIKLDGVDVIGYTAWSLMDGFEWHRGYSIRRGLFYVDFLSQDKMLLPKSSALFYQKLIEKNGFPPLPENQPLEGTFPCDFAWGVVDNYIQVDTTLSQFTDLNVYLWDVHHSKRLIKVDGVVTKKRKSYCVDFAAIQPQIALLQEMHVTHFRFSLDWALILPLGNQSQVNHTILQYYRCMASELVRVNITPVVALWQPMAPNQGLPRLLARQGAWENPYTALAFAEYARLCFQELGHHVKLWITMNEPYTRQMTYSAGHNLLKAHALAWHVYNEKFRHAQNGKISIALQADWIEPACPFSQKDKEVAERVLEFDIGWLAEPIFGSGDYPWVMRDWLNQRNNFLLPYFTEDEKKLIQGTFDFLALSHYTTILVDSEKEDPIKYNDYLEVQEMTDITWLNSPSQVAVVPWGLRKVLNWLKFKYGDLPMYIISNGIDDGLHAEDDQLRVYYMQNYINEALKAHILDGINLCGYFAYSFNDRTAPRFGLYRYAADQFEPKASMKHYRKIIDSNGFPGPETLERFCPEEFTVCTECSFFHTRKS
modifications: left off: small tags and cut ends
notes: sKL variant with glycosylation site Asn694 substituted by Gln

B2: FGF5: recombinant human FGF5 from R&D Systems (protein)
chain: EKRLAPKGQPGPAATDRNPRGSSSRQSSSSAMSSSSASSSPAASLGSQGSGLEQSSFQWSPSGRRTGSLYCRVGIGFHLQIYPDGKVNGSHEANMLSVLEIFAVSQGIVGIRGVFSNKFLAMSKKGKLHASAKFTDDCKFRERFQENSYNTYASAIHRTEKTGREWYVALNKRGKAKRGCSPRVKPQHISTHFLPRFKQSEQPELSFTVTVPEKKKPPSPIKPKIPLSAPRKNTNSVKYRLKFRFG
- ERK phosphorylation induced by FGF [1]: induced ERK phosphorylation

B3: FGF8b: recombinant human FGF8b from R&D Systems (protein)
chain: QVTVQSSPNFTQHVREQSLVTDQLSRRLIRTYQLYSRTSGKHVQVLANKRINAMAEDGDPFAKLIVETDTFGSRVRVRGAETGLYICMNKKGKLIAKSNGKGKDCVFTEIVLENNYTALQNAKYEGWYMAFTRKGRPRKGSKTRQHQREVHFMKRLPRGHHTTEQSLRFEFLNYPPFTRSLRGSQRTWAPEPR
- ERK phosphorylation induced by FGF [1]: induced ERK phosphorylation
